Source: the nanobody polyreactivity screen of Harvey et al. (2022)

Test: yeast display, Sf9 membrane polyspecificity reagent, FACS + sequencing; frameworks hold sequencing errors
Procedure, shortened: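 Synthetic nanobody libraries on Saccharomyces cerevisiae BJ5465 were galactose-induced for 36–48 hours, stained 1 hour at 4 °C with 10% biotinylated, detergent-solubilized Sf9 membrane reagent and enriched on streptavidin microbeads. FACS then separated cells into low and high (top ~1%) gates by anti-HA (expression) and streptavidin (reagent binding) fluorescence. Genes were colony-PCR amplified, MiSeq 2 × 250 sequenced and CDR-length filtered. A clone's polyreactivity label is that of its gate of origin.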

| Sequence | polyreactivity (PSR sort gate) |
| --- | --- |
| QVQLVESGGGLVQAGGSLRLSCAASGRIFFKNAMGWYRQAPGKDRELVAAISWSGGRTYYADSVKGRFTISRDNAKNTVYLQMNSLKPEDSAVYYCATRYHVGKYLYGYWGQGTQVTVSS | high polyreactivity |
| QVQLVESGGGLVQAGGSLRLSCAASGSTFVLYAMGWYRQAPGKERELVAAISTSGGRTYYADSVKGRFTISRDNAKNTVNLQMNSLKPEDTAVYYCAALTYVAQYDEYWGQGTQVTVSS | low polyreactivity |
| QVQLVETGGGLVQAGGSLRLSCAASGFTYRRYAMGWYRQAPGKERELVAAINWNGDSTYYADSVKGRFTISRDNAKNTVYLQMNSLKPEDTAVYYCNAGWYGGRYSKFDYWGQGTQVTVSS | high polyreactivity |
| QVQLVESGGGLVQAGGSLRLSCAASGITFGVNTMGWYRQAPGKERELVAAITWRGGSTYYADSVKGRFTISRDNAKNTVYLQMNSLKPEDTAVYYCAAQPIWPGGQELDYWGQGTQVTVSS | low polyreactivity |
| QVQLVESGGGLVQAGGILRLSCAASGRIFGYNAMGWYRQAPGKERELVAAIRQRAGSTNYADSVKGRFTISRDNSKNTVYLQMKSLKPEDTAVYYCAVDGNFFGEVRPYDYWGQGSQVTVSS | low polyreactivity |
| QVQLVESGVGLVKAGGSLRLSCAASGSTFRGYAMGWYRQAPGKERELVAAITYISDTTNYADSVKGRFTISRDNAKNTVYLQMNSLKPDDTAVYYCNAYYDGVWRYTSQETGDHWGQGTQVTVSS | low polyreactivity |
| QVQLVESGGGLVQAGGSLRLSCAASGIIFDWYDMGWYRQAPGKERELVATITSDDGTNYADSVKGRFTIARDNAKNTVYFQLNSLKPEDTAVYYCAKRLIPSLPILQKMDYWGQGTQVTVSS | low polyreactivity |
| QVQLVESGGGLVQAGGSLRLSCAASGRTFSLDAMGWYRQAPWKERELVASITDSTGGSTYYADSVKGRFTISRDNAKNTVYLQMNSLKPEDTAVYYCAAQDSQYSDYQWWFGYWGQGTQVTVSS | low polyreactivity |
| QVQLVESGGGLVQAGGSLRLSCAASGFIFRYYAMGWYRQAPGKERELVAAISSGGGTYYADSVKGRFTISRDNAKNTVYLQMNSLKPEDTAVYYCNKASTSYYRFNYWGQGTQVTVSS | high polyreactivity |
| QVQLVESGGGLVQAGGSLRLSCAASGRTFYRNAMGWYRQAPGKERELVAAITRGGRTYYADSVKGRFTISRDNAKNTVYLQMNSLKPEDTAVYYCNAVSYSSTLASKIPDDYWGQGTQVTVSS | high polyreactivity |
| QVQLVESGVGLVQAGGSLRLSCAASGRTFISNVMGWYRQAPGKERELVAAISGSSGSTRYADSVKGRFTISRDNAKNTVYLQMISLKPEDTAVYYCAARAPWPKWGYYYWGQGTQVTVSS | high polyreactivity |
| QVQIVESGGGLVQAGGSLRLSCAASGFIFQAYAMGWYRQAPGKERELVAAISSTSGRTYYADSVKGRFTISRDNAKNTVYLQMNSLKPEDTAVYYCARAVSSRNSGEYHYWGQGTQVTVSS | high polyreactivity |
| QVQLVESGGGLVQAGGSLRLSCAASVSTIGTYAMGWYRQAPGKERELVAAISTGGSTYYADSVKGRFTISRANAKNTVHLQMNSLKPEDTAVYYCAALADYVRRASDYWGQGTQVTVSS | low polyreactivity |
| QVQLVESGGGLVQAGGSLRLSCAASGRIFSSYAMGWYRQAPGKERELVAVISQRGGSTSYADSVKGRFTISRDNAKNTVYLQMNSLKPEDTAVYYCARRPGKGNNYWGQGTQVTVSS | high polyreactivity |
| QVQLVESGGGLVQAGGSLRLSCAASGRTFVYYAMGWYRQAPGKERELVAAITFSGGSTYYADSVKGRFTISRDNAKNTVYLQMNSLKPEDTAVYYCAAQYRYSYPLGDYWGQGTQVTVSS | low polyreactivity |
| QLQLVESGGGLDQAGCSLRLSCAASRTIITRNAMGWYRPAPGKESELVASINSGGSTYYADSVKGRFTISRDNAKNTVYLQMNSLKPDDTAVYYCAVEEDRYYYDDYDYWGQGTQVTVSS | low polyreactivity |
| QVQLVESVVGLVQAGGSLRLSCAASGRTFYRNGMGWYRQAPGKERELVAAISSRGGSTYYADSVKGRFTISRDNAKNTVYLQMNSLKPEDTAVYYCAAPRASGYYWGQGTQVTVSS | high polyreactivity |
| QVQHVESGGGLVQAGGSLRLSCAASVRTFYTYAMGRDRQAPGKERELVAAISLSGTRTYYADSVKGRFTISRDNAKNTVYLQMNSLNPEDTAVYYCAADRFNKPYYYWGQGTQVTVSS | high polyreactivity |
| QVQLQESGGCLVQAGGSLRKSCAASGNIFDADIMGWYRQAPGKERELVASITDGRRTNYADSVKGRYTISRDSENNTVYLQLNSLKAEDTAVYYCAAIAYPVVPTYFDYDSDFFHWGQGTQVTVSS | high polyreactivity |
| QVQLVESGGGLVQAGGSLRLSCAASGSTFAANTMGWYRQAPGKEWELVAAITVRGGSTYYADSVKGRFTISRDNAKTTVYLQMNSLKPEDTAVYYCAAERPPYGYLVVGYVSTQYYYWGQGTQVTVSS | low polyreactivity |
| QVQLVESGGGLVQAGGSHRLSCAATGLTFAYYDMGWYRQAPGKERELVAAITSGGTTNYADSVKGRFTISRDNAKNTVYLQMNSLKPEDTAVYYCNADYYSRIVGVRIYDYWGQGTQVTVSS | low polyreactivity |
| QVQLVESGGGLVQAGGSLRLSCAASGITFSYYAMGWYRQAPGKERELVAAINSSGGSTYYADSVKGRFTISRDNAKNTVYLQMNSLKPEDTAVYYCNADYGYHNHLFWGYYGWSSDHWGQGTQVTVSS | low polyreactivity |

| Sequence | polyreactivity (PSR sort gate) |
| --- | --- |
| QVQLVESGGGLVQAGGSLRLSCAASGSTLYGNVMGWYRQAPGKERELVATINRGGSTNYADSVKGRFTISRDNAKNNVYLQMNSLKPEDTAVYYCAADYYGYWYDYEGDHWGQGTQVTVSS | low polyreactivity |
| QVQLVESGGGLVQAGGSLRLTCAASGLTFDSNVMGWYREAPGKERELVAANTYSGRTYYADSEKGRFTISRDNAKNTVYLQMNSLKPEDTAVYYCAARNLAYTRKGYYYWGQGTQVTVSS | high polyreactivity |
| QVQLVESGGGLVQAGGSLRISCAASGFIFNIYAMGWYRQAPGKERELVASITSGGNTNYADSVKGRFTISRDNAKNTVYLQMNSLKPEDTAVYYCAAETSSSRGYDYWGQGTQVTVSS | low polyreactivity |
| QVQLVESGGGLVQAGGSLRLSCAASGRTFWANTMGWYRQAPGKEREFVAAISGRDVSTYYADSVKGRFTISRDNAMNTVYLQMNSLKPEDTAVYYCAAGNLYYAEYDYWGQGTQVTVSS | low polyreactivity |
| QVQLVESGGGLVQAGGSLRLSCASSGYTIPLYAMVWYRQAPGKERELVADINIGGASTYYADSVKGRFTISRDNAKYTVYLQMNSLKPEDTAVYYCAKEYYDGYFTTFEYDYWGQGTQVTVSS | low polyreactivity |
| QVQLVESGGGLVQAGGSLRLSSAASGIFSYYAIGWYRQAPGKERELVAAISSSGGSTYYADSVKGRFTISRDNAKNTVYLQMNSLKPEDTAVYYCAVSGGTSRRYYYWGLGTQVTVSS | high polyreactivity |
| QVQLVESGGGLVQAGGSLRLSCAASGFIFYEYAMGWYRQAPGKERELVAAITSGGSTDYADSVKGRFTISRDNANNTVYLQMNSLKPEDTAVYYCNADLFTGYYWYNYWGQGTQVTVSS | low polyreactivity |
| QVQLVESGGGLVQAGGSLRLSCAASGSTFPRNAMGWYRQAPGKEWELVAAISGRGVRTYYADSVKGRFTISSDNAKNTVNFQMYSLKPEDTAVYYCAASRGKGVGLAYDYWGQGTQVTVSS | high polyreactivity |
| QVQLVESGGGLVQAGGSLRLSCAASGSIFGPYAMGWYRQAPGKERELVATISSGGNTNYADSVKGRFTISRDNAKNTVYLQMNSLKPEDTAVYYCAADYTWSVYWWVDYWGQGTQVTVSS | low polyreactivity |
| QVHIVDSCGGLVKAGGSLRLSSAASGSIFHPYTMVWYRQAPGKEMELVAGISQSTDSTYYADSLKGRFTISRDYAKTTVYFQMISLKPEDTAVYYCNRVYDLPLSVVEVDYWGQGTQVTVSS | low polyreactivity |
| QVQLVESGGGLVQAGGSLRLSCAASGNTLAKYAMGWYRQAPGKERELVAAISWSGGRTFYADSVKGRFTISRDNAKNTVYLQMNSLKPEDSAVYYCNKVKGQSFSSYGYWGQGTQVTVSS | high polyreactivity |
| QVQLVESGGGLVQAGGSLRLSCAASGSTFGDNAMGWYRQAPGKERELVAAISSSGDSTYYADSVKGRFTISRDNAKNTVYLQMNSLKPEDTAVYYCAADRGSTAGSVTYTPGNYWGQGTQVTVSS | low polyreactivity |
| QVQLVESGGGLVQAGGSLRLSCAASGSTFTVNGMGWYRQAPGKERELVASITWSGGSTYYADTVKGRFTISRDNAKNTVYLQMNSLKPEDTAVYYCAADEKLYITGYDYWGQGTQVTVSS | low polyreactivity |
| QVQLVESGGGLVQAGGSLRLSCAASGSTYAYDMGSYRQAPGKERELVAAISWDGGDTYYADSVKGRFTISRDNAKNTVYLQMNSLKPEDTAVYYCNTVFQRSGYAAGVDYWGQGTQVTVSS | high polyreactivity |
| QVQLVESGGGLVQAGGRLRLSCAPSGIIFQQYAMGWYRQAPGKERELVAAISRGGTRTYYADSVKGRFTISRDNAKNTVYLLMNSLKPEDTAVDYCAADRGYFSYDYWGQGTQVTVSS | high polyreactivity |
| QVQLVESGGGLVQAGGSLRLSCAASGFTFWTYAMGWYRQAPGKERELVAAIDSGGSTYYADSVKGRFTISRDNAKNTVYLQMNSVKPEDTAVYYCNAGPSVTSGYDYDYWGQGTQVTVSS | low polyreactivity |
| QVQLVESGGGLVQAGGSLRLICDASGSTFAVYTMGLYIQAPGTEREFVAAISSTGTCTYYADSVKGRFTISRDHAKNTVYLQKNSLKPEDTAVYYCAARWLGYRISYDYWGQGTQVTVSS | high polyreactivity |
| QVHLVESGGGLVQAGGSLRLSCAASGSTFQSNAMGWYRQAPGKERELVATITQSGATTYYADSVKGRFTISRDNAKNTVYLQMNSLKPEDTAVYYCNVDTYQKRWFWLDLDGGYWGQGTQVTVSS | low polyreactivity |
| QVQLVESGGGLVQAGGSLRISCAASGRTFWKYVMGWYRQAPGKEMELVAVISRPAGSTYYADSVKGRFTISRDNAKNTVYLQRNSLKPEDTAVYYCDKRPKNKPVLGDYDHWGQGTQVTVSS | low polyreactivity |
| QVQLVESGGGLVQAGGSLRLSCAASGRTFGRYAMGWYRQAPGKERELVAAINRGGSTKYADSVKGRFTISRDNAKNTVYLQRNSQKPEDSAVYYCAKDLHPALHYDYWGQGTQVTVSS | low polyreactivity |
| QVHLVESGGGLVQAGGSLRLSCAAYGIIFNSNAMGWYRQAPGKERELVAAISVSGGSTYYADSVKGRFTISRDNAKNTVYLQMNSLKPEDTAVYFCAARTGRGDRTRRYYYWGQGTKVTVSS | high polyreactivity |
